Experiment [1] deals with anti-glycocalicin antibodies. The settings on record: competitive ELISA, literature; cited from earlier work.
For experiment [2], the target named is T1, binding of von Willebrand factor and chimeric protein (glycoprotein Ib) (Homo sapiens, UniProt P04275+P07359). The experiment in a line: Detection of glycocalicin in plasma using chimeric protein labeled with europium (Eu). More on the design: made in house; host or cells: CHOK1 cells transfected with pMikGPIbFc; purified on a Protein A column and labelled with europium. As to conditions: diluted human plasma, based on reported blood concentration about 2 μg/ml. The protocol:
The detection was carried out in the same manner as that of Example 4 <2> except that svon Willebrand factor was immobilized by using a mixed solution (TBS) containing 2.5 μg/ml of von Willebrand factor and 2.5 μg/ml of botrocetin, and a binding inhibition substance of which inhibitory activity was desired to be measured was added to the reaction of the immobilized von Willebrand factor and the chimeric protein labeled with europium (Eu).
Each human plasma independently prepared in the same manner as the above <1> were successively diluted 2-fold with TBS (8 times of dilution in total), and 25 μl each of the diluted plasma was added to each well of a von Willebrand factor immobilized plate prepared in the same manner as in Example 5 <1> (microtitration plate DELFIA, 1244-550, produced by Pharmacia Biotech, was used as the base plate). Further, 25 μl a solution of the chimeric protein labeled with europium (Eu) in assay buffer prepared in the same manner as in Example 4 <1> (100 ng/ml, Assay Buffer; 1244-106, produced by Pharmacia Biotech) was added to each well of the plate for reaction. The subsequent washing and measurement were performed in the same manner as in Example 5 <2>, and the average values of the results are shown in FIG. 7.

The target of experiment [3] is T1, binding of von Willebrand factor and chimeric protein (glycoprotein Ib). The experiment in a line: Detection of glycocalicin in plasma by ELISA using anti-mouse IgG-Fc antibodies. More on the design: made in house; host or cells: CHOdhfr- cells transfected with pSDGPIbIgG1Fc; unpurified serum-free culture supernatant. The settings on record: diluted human plasma, based on reported blood concentration about 2 μg/ml. The protocol:
Immobilization of a mixed solution of von Willebrand factor and botrocetin on a 96-well multititer plate was attained as follows. First, a physiological saline solution of von Willebrand factor (250 μg/ml) and a physiological saline solution of botrocetin (500 μg/ml), which were prepared in a conventional manner, were appropriately diluted, and mixed at the concentration ratios shown in FIG. 2. Then, 50 μl of each mixture was added to each well of a 96-well multititer plate (Maxisorp, produced by Nunc). […]
Each well was washed 5 times with TBS (150 μl) containing 0.05% Tween-20, and added with 100 μl of 100 mM NaHCO3 solution containing 10 mM MgCl2, in which p-nitrophenylphosphate was dissolved at 1 mg/ml, to carry out the color development reaction for about 1 hour. After the color development, absorbance at 405 nm was measured.
The detection was carried out in the same manner as that of Example 4 <1> except that von Willebrand factor was immobilized by using a mixed solution (TBS) containing 2.5 μg/ml of von Willebrand factor and 2.5 μg/ml of botrocetin, and a binding inhibition substance of which inhibitory activity was desired to be measured was added to the reaction of the immobilized von Willebrand factor and the culture supernatant of the chimeric protein producing cells. […]

For “glycocalicin: enzymatically cleaved extracellular portion of platelet membrane glycoprotein Ibα chain, about 135 kDa”, the “IC50 value of the glycocalicin concentration showing competitive inhibition” value in experiment [1] is “about 4 μg/ml”. Moreover, the “Glycocalicin concentration showing 50% binding inhibition” value is listed as “about 60 ng/ml” in experiment [2] and “about 400 ng/ml” in experiment [3].

The values are drawn from patent publication US7608695B2, “Substance with antithrombotic activity and method for detecting glycokallidin” (Ajinomoto Co., Inc., priority 1998, dated 2009).
